Assay results taken from IntAct's records for PubMed 8922390.

How the values were obtained:
fak1_chick PTK2 = fak1_chick PTK2 (UniProt Q00944)
Sequence of fak1_chick PTK2 (Q00944 whole entry): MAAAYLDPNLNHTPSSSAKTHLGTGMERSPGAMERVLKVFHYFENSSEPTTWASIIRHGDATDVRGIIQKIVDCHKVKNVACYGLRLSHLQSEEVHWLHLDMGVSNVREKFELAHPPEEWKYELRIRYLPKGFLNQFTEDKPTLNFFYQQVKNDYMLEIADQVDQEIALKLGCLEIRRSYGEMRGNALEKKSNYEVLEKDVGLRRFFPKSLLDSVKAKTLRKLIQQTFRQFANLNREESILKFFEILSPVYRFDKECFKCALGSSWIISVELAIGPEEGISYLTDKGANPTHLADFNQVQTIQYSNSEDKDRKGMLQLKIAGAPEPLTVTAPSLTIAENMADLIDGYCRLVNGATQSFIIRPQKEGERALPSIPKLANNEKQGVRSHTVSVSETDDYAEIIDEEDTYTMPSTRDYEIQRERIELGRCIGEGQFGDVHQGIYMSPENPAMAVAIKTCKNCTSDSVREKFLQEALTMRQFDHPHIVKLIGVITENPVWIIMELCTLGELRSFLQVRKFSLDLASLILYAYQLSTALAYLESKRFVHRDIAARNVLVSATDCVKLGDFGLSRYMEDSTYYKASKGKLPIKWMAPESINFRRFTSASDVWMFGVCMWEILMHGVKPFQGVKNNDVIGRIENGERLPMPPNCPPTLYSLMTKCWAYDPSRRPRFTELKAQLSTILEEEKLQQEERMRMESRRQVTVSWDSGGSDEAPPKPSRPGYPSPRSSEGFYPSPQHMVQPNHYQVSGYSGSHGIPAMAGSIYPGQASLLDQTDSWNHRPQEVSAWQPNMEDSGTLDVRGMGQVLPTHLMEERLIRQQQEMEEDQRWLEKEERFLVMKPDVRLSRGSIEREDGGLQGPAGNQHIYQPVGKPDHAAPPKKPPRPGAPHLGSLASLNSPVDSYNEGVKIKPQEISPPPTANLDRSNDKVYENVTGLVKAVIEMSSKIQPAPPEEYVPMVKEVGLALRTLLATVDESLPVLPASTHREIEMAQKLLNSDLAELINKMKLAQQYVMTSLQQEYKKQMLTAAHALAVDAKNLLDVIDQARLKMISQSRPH

Sequence of Paxillin (Gallus gallus (Chicken)), P49024 D146N;R147Q (P49024 whole entry D146N/R147Q): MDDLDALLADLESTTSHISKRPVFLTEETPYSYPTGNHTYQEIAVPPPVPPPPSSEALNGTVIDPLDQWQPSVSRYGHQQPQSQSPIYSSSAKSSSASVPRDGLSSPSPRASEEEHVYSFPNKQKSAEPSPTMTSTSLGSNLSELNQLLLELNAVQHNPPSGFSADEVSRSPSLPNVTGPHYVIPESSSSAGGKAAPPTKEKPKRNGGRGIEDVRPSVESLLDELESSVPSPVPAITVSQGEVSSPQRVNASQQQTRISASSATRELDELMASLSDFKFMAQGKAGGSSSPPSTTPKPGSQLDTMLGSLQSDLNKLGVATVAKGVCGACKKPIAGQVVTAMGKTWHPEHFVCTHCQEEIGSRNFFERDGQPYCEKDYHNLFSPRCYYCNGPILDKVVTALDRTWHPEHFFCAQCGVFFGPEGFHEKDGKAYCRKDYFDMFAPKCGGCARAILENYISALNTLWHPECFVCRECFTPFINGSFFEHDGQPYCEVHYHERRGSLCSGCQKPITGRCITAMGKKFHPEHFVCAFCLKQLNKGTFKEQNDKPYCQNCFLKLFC
Sequence of Paxillin (Gallus gallus (Chicken)), P49024 E151Q (P49024 whole entry E151Q): as the sequence (P49024 whole entry D146N/R147Q) above, with N146D, Q147R, E151Q counted along it

## Paxillin (Gallus gallus (Chicken)), P49024 D146N;R147Q
fak1_chick PTK2
  effect of a mutation on the interaction: decreasing interaction
VCL, P12003-1
Sequence of VCL, P12003-1 (P12003 other isoform, or with tags, fused parts or gaps): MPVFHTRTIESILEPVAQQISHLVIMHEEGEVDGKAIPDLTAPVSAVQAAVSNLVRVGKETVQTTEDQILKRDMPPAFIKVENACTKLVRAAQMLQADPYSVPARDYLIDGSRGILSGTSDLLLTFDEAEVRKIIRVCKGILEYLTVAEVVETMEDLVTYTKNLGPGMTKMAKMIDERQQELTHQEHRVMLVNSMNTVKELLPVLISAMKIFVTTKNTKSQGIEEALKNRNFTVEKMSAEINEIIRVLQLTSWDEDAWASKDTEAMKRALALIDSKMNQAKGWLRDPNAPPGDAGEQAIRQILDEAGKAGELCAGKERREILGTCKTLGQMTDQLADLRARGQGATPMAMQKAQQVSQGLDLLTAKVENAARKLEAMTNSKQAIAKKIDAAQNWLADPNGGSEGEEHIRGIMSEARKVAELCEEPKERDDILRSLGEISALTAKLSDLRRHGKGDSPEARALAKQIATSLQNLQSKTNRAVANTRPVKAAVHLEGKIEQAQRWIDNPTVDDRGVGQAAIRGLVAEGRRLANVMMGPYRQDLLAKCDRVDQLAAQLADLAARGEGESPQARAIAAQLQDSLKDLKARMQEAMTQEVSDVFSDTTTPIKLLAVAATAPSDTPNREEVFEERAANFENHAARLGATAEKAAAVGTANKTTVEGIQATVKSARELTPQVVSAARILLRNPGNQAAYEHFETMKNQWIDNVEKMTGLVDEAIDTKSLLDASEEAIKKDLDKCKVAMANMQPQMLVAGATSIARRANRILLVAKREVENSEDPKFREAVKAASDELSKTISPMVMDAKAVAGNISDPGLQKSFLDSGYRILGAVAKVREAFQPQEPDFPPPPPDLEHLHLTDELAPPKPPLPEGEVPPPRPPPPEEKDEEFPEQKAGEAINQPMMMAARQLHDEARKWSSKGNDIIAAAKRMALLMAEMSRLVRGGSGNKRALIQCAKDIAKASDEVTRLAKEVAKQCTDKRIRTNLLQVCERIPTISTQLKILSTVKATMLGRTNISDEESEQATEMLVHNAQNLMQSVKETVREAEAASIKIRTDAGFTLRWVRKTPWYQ
  effect of a mutation on the interaction: decreasing interaction

## Paxillin (Gallus gallus (Chicken)), P49024 E151Q
VCL, P12003-1
  effect of a mutation on the interaction: decreasing interaction
